Measurements from patent US20180086849A1 (Hoffmann-La Roche, published 2018).

T1: human CEA (Carcinoembryonic antigen) on cells (human, UniProt P06731 35-685)
T1 sequence (looked up): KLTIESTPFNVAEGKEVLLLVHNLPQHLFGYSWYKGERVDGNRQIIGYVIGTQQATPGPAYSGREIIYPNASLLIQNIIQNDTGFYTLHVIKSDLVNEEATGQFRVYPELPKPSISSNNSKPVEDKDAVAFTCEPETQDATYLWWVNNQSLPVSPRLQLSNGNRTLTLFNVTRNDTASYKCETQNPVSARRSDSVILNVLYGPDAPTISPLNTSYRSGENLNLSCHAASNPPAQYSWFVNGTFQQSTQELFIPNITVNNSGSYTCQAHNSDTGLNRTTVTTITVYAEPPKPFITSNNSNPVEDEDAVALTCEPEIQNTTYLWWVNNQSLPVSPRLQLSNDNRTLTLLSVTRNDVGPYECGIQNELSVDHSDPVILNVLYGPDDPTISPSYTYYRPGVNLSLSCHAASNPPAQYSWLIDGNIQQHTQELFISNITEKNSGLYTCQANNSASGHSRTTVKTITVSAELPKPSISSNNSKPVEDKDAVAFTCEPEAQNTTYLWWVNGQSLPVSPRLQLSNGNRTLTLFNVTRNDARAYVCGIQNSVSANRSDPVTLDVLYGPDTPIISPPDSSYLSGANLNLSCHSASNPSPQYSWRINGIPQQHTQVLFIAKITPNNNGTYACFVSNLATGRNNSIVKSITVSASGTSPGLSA


What was measured:
Assay in all cases: cell-based or functional assay
[1] = target: T1, human CEA (Carcinoembryonic antigen) on …
[2] = target: T2, human MCSP (Melanoma-associated Chondroitin Sulfate Proteoglycan) on cells (human, UniProt Q6UVK1 30-2322)
[3] = target: T2, human MCSP (Melanoma-associated …); remark: listed apart in the source

T2 sequence (Q6UVK1 30-2322): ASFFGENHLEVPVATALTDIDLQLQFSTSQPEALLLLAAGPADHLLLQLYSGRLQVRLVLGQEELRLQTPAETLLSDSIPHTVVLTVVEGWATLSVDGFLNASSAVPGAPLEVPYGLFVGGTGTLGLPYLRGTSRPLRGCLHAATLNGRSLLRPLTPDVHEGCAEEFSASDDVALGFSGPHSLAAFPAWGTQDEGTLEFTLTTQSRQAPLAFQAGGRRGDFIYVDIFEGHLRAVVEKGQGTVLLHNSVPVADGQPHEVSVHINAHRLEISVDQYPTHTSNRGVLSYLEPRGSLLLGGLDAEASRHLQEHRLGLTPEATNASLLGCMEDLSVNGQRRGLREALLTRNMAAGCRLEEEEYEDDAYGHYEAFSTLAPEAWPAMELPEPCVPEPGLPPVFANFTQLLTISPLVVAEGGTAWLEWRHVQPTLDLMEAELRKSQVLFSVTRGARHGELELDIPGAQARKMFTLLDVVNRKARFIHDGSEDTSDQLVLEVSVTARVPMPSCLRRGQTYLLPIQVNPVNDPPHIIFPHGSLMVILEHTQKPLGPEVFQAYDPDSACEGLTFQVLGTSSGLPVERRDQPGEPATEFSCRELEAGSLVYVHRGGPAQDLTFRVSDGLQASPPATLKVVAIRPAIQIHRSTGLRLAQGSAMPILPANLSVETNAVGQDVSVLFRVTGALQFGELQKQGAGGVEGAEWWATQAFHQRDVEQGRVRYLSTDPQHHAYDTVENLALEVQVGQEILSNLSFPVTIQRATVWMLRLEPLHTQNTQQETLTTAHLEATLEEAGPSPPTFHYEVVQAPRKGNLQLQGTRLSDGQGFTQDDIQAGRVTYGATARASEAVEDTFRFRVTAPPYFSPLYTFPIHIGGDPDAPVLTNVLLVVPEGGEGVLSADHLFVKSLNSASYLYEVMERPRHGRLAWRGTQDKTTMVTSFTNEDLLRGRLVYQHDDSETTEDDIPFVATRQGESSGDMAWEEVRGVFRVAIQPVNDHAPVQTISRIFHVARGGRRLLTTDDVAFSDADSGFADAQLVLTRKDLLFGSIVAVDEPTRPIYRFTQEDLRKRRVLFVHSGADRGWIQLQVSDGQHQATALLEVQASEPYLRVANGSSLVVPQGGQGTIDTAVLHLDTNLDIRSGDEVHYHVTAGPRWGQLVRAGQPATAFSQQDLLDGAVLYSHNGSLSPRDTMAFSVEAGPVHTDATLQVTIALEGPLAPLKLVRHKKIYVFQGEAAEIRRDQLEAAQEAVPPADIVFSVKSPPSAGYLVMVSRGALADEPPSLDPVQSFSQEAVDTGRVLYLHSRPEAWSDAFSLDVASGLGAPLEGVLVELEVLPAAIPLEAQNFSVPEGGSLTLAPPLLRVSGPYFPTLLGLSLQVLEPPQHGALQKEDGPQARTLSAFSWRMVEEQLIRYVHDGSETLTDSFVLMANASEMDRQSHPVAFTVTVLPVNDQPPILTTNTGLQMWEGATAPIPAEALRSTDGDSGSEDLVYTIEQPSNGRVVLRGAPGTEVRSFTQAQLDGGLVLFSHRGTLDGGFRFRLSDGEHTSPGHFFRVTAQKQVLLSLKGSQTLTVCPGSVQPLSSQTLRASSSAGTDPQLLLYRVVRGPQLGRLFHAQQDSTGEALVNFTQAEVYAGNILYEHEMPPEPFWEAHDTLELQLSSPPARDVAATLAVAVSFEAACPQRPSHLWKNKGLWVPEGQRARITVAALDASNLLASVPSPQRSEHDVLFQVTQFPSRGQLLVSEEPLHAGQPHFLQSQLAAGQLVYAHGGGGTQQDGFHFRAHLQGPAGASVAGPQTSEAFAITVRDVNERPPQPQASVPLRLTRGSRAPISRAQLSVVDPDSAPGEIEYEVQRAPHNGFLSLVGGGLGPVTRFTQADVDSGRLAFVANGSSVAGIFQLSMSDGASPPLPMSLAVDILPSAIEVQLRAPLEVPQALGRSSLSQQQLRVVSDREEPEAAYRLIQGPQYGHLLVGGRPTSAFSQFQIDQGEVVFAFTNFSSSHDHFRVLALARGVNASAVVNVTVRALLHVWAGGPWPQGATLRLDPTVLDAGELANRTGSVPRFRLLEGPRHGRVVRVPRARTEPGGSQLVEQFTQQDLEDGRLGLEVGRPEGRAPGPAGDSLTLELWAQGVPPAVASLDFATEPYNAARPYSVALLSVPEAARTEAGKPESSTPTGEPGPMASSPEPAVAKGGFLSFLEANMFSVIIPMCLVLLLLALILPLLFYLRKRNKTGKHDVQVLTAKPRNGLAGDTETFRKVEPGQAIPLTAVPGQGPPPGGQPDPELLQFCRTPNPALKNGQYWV

| Binder | EC50 of T cell-mediated killing (LDH release) of LS-174T cells, human PBMCs, 28 h [1] [nM] | EC50 of T cell-mediated killing (LDH release) of MKN-45 cells, human PBMCs, 28 h [1] [nM] | EC50 [pM] of T cell-mediated killing (LDH release) of MV-3 cells, human PBMCs, about 24 h [2] [pM] | EC50 [pM] of T cell-mediated killing (LDH release) of WM266-4 cells, human PBMCs, about 24 h [2] [pM] | EC50 of T cell-mediated killing (LDH release) of MV-3 cells, human PBMCs, 21 h [3] [nM] | EC50 of T cell-mediated killing (LDH release) of WM266-4 cells, human PBMCs, 21 h [3] [nM] |
| --- | --- | --- | --- | --- | --- | --- |
| 2+1 IgG Crossfab, inverted; CL/CH1 exchange (CH1A1A/V9), anti-CEA/anti-huCD3 (bispecific antibody) chain 1: QVQLVQSGAEVKKPGASVKVSCKASGYTFTEFGMNWVRQAPGQGLEWMGWINTKTGEATYVEEFKGRVTFTTDTSTSTAYMELRSLRSDDTAVYYCARWDFAYYVEAMDYWGQGTTVTVSSASTKGPSVFPLAPSSKSTSGGTAALGCLVKDYFPEPVTVSWNSGALTSGVHTFPAVLQSSGLYSLSSVVTVPSSSLGTQTYICNVNHKPSNTKVDKKVEPKSCDKTHTCPPCPAPEAAGGPSVFLFPPKPKDTLMISRTPEVTCVVVDVSHEDPEVKFNWYVDGVEVHNAKTKPREEQYNSTYRVVSVLTVLHQDWLNGKEYKCKVSNKALGAPIEKTISKAKGQPREPQVCTLPPSRDELTKNQVSLSCAVKGFYPSDIAVEWESNGQPENNYKTTPPVLDSDGSFFLVSKLTVDKSRWQQGNVFSCSVMHEALHNHYTQKSLSLSPGK chain 2: DIQMTQSPSSLSASVGDRVTITCKASAAVGTYVAWYQQKPGKAPKLLIYSASYRKRGVPSRFSGSGSGTDFTLTISSLQPEDFATYYCHQYYTYPLFTFGQGTKLEIKRTVAAPSVFIFPPSDEQLKSGTASVVCLLNNFYPREAKVQWKVDNALQSGNSQESVTEQDSKDSTYSLSSTLTLSKADYEKHKVYACEVTHQGLSSPVTKSFNRGEC chain 3: DIQMTQSPSSLSASVGDRVTITCRASQDIRNYLNWYQQKPGKAPKLLIYYTSRLESGVPSRFSGSGSGTDYTLTISSLQPEDFATYYCQQGNTLPWTFGQGTKVEIKSSASTKGPSVFPLAPSSKSTSGGTAALGCLVKDYFPEPVTVSWNSGALTSGVHTFPAVLQSSGLYSLSSVVTVPSSSLGTQTYICNVNHKPSNTKVDKKVEPKSC chain 4: not shown | 0.673 | 0.115 |  |  |  |  |
| 2+1 IgG Crossfab, inverted; CL/CH1 exchange (LC007/V9), anti-MCSP/anti-huCD3 (bispecific antibody) chain 1: DIVLTQSPSSLSASLGDRVTISCSASQGIRNYLNWYQQRPDGTVKLLIYYTSSLHSGVPSRFSGSGSGTDYSLTISNLEPEDIATYYCQQYSKLPWTFGGGTKLEIKRTVAAPSVFIFPPSDEQLKSGTASVVCLLNNFYPREAKVQWKVDNALQSGNSQESVTEQDSKDSTYSLSSTLTLSKADYEKHKVYACEVTHQGLSSPVTKSFNRGEC chain 2: EVQLQESGPGLVKPSQSLSLTCSVTGYSITSGYYWNWIRQFPGNKLEWMGYITYDGSNNYNPSLKNRISITRDTSKNQFFLKLNSVTTEDTATYYCADFDYWGQGTTLTVSSASTKGPSVFPLAPSSKSTSGGTAALGCLVKDYFPEPVTVSWNSGALTSGVHTFPAVLQSSGLYSLSSVVTVPSSSLGTQTYICNVNHKPSNTKVDKKVEPKSCDKTHTCPPCPAPEAAGGPSVFLFPPKPKDTLMISRTPEVTCVVVDVSHEDPEVKFNWYVDGVEVHNAKTKPREEQYNSTYRVVSVLTVLHQDWLNGKEYKCKVSNKALGAPIEKTISKAKGQPREPQVCTLPPSRDELTKNQVSLSCAVKGFYPSDIAVEWESNGQPENNYKTTPPVLDSDGSFFLVSKLTVDKSRWQQGNVFSCSVMHEALHNHYTQKSLSLSPGK chain 3: DIQMTQSPSSLSASVGDRVTITCRASQDIRNYLNWYQQKPGKAPKLLIYYTSRLESGVPSRFSGSGSGTDYTLTISSLQPEDFATYYCQQGNTLPWTFGQGTKVEIKSSASTKGPSVFPLAPSSKSTSGGTAALGCLVKDYFPEPVTVSWNSGALTSGVHTFPAVLQSSGLYSLSSVVTVPSSSLGTQTYICNVNHKPSNTKVDKKVEPKSC chain 4: not shown |  |  | 4.1 | 3.7 |  |  |
| 2+1 IgG Crossfab; VH/VL exchange (LC007/V9), anti-MCSP/anti-huCD3 (bispecific antibody) chain 1: not shown chain 2: DIVLTQSPSSLSASLGDRVTISCSASQGIRNYLNWYQQRPDGTVKLLIYYTSSLHSGVPSRFSGSGSGTDYSLTISNLEPEDIATYYCQQYSKLPWTFGGGTKLEIKRTVAAPSVFIFPPSDEQLKSGTASVVCLLNNFYPREAKVQWKVDNALQSGNSQESVTEQDSKDSTYSLSSTLTLSKADYEKHKVYACEVTHQGLSSPVTKSFNRGEC chain 3: DIQMTQSPSSLSASVGDRVTITCRASQDIRNYLNWYQQKPGKAPKLLIYYTSRLESGVPSRFSGSGSGTDYTLTISSLQPEDFATYYCQQGNTLPWTFGQGTKVEIKSSASTKGPSVFPLAPSSKSTSGGTAALGCLVKDYFPEPVTVSWNSGALTSGVHTFPAVLQSSGLYSLSSVVTVPSSSLGTQTYICNVNHKPSNTKVDKKVEPKSCGGGGSGGGGSEVQLQESGPGLVKPSQSLSLTCSVTGYSITSGYYWNWIRQFPGNKLEWMGYITYDGSNNYNPSLKNRISITRDTSKNQFFLKLNSVTTEDTATYYCADFDYWGQGTTLTVSSASTKGPSVFPLAPSSKSTSGGTAALGCLVKDYFPEPVTVSWNSGALTSGVHTFPAVLQSSGLYSLSSVVTVPSSSLGTQTYICNVNHKPSNTKVDKKVEPKSCDKTHTCPPCPAPEAAGGPSVFLFPPKPKDTLMISRTPEVTCVVVDVSHEDPEVKFNWYVDGVEVHNAKTKPREEQYNSTYRVVSVLTVLHQDWLNGKEYKCKVSNKALGAPIEKTISKAKGQPREPQVCTLPPSRDELTKNQVSLSCAVKGFYPSDIAVEWESNGQPENNYKTTPPVLDSDGSFFLVSKLTVDKSRWQQGNVFSCSVMHEALHNHYTQKSLSLSPGK chain 4: EVQLVESGGGLVQPGGSLRLSCAASGYSFTGYTMNWVRQAPGKGLEWVALINPYKGVSTYNQKFKDRFTISVDKSKNTAYLQMNSLRAEDTAVYYCARSGYYGDSDWYFDVWGQGTLVTVSSASVAAPSVFIFPPSDEQLKSGTASVVCLLNNFYPREAKVQWKVDNALQSGNSQESVTEQDSKDSTYSLSSTLTLSKADYEKHKVYACEVTHQGLSSPVTKSFNRGEC |  |  | 10 | 12.4 | 0.0092 | 0.0331 |
| 2+1 IgG Crossfab; CL/CH1 exchange (LC007/anti-CD3), anti-MCSP/anti-huCD3 (bispecific antibody) chain 1: DIVLTQSPSSLSASLGDRVTISCSASQGIRNYLNWYQQRPDGTVKLLIYYTSSLHSGVPSRFSGSGSGTDYSLTISNLEPEDIATYYCQQYSKLPWTFGGGTKLEIKRTVAAPSVFIFPPSDEQLKSGTASVVCLLNNFYPREAKVQWKVDNALQSGNSQESVTEQDSKDSTYSLSSTLTLSKADYEKHKVYACEVTHQGLSSPVTKSFNRGEC chain 2: EVQLQESGPGLVKPSQSLSLTCSVTGYSITSGYYWNWIRQFPGNKLEWMGYITYDGSNNYNPSLKNRISITRDTSKNQFFLKLNSVTTEDTATYYCADFDYWGQGTTLTVSSASTKGPSVFPLAPSSKSTSGGTAALGCLVKDYFPEPVTVSWNSGALTSGVHTFPAVLQSSGLYSLSSVVTVPSSSLGTQTYICNVNHKPSNTKVDKKVEPKSCDKTHTCPPCPAPEAAGGPSVFLFPPKPKDTLMISRTPEVTCVVVDVSHEDPEVKFNWYVDGVEVHNAKTKPREEQYNSTYRVVSVLTVLHQDWLNGKEYKCKVSNKALGAPIEKTISKAKGQPREPQVCTLPPSRDELTKNQVSLSCAVKGFYPSDIAVEWESNGQPENNYKTTPPVLDSDGSFFLVSKLTVDKSRWQQGNVFSCSVMHEALHNHYTQKSLSLSPGK chain 3: QAVVTQESALTTSPGETVTLTCRSSTGAVTTSNYANWVQEKPDHLFTGLIGGTNKRAPGVPARFSGSLIGDKAALTITGAQTEDEAIYFCALWYSNLWVFGGGTKLTVLSSASTKGPSVFPLAPSSKSTSGGTAALGCLVKDYFPEPVTVSWNSGALTSGVHTFPAVLQSSGLYSLSSVVTVPSSSLGTQTYICNVNHKPSNTKVDKKVEPKSC chain 4: not shown |  |  | 11 | 11.3 |  |  |
| 2+1 IgG Crossfab, inverted; CL/CH1 exchange (LC007/anti-CD3), anti-MCSP/anti-huCD3 (bispecific antibody) chain 1: DIVLTQSPSSLSASLGDRVTISCSASQGIRNYLNWYQQRPDGTVKLLIYYTSSLHSGVPSRFSGSGSGTDYSLTISNLEPEDIATYYCQQYSKLPWTFGGGTKLEIKRTVAAPSVFIFPPSDEQLKSGTASVVCLLNNFYPREAKVQWKVDNALQSGNSQESVTEQDSKDSTYSLSSTLTLSKADYEKHKVYACEVTHQGLSSPVTKSFNRGEC chain 2: EVQLQESGPGLVKPSQSLSLTCSVTGYSITSGYYWNWIRQFPGNKLEWMGYITYDGSNNYNPSLKNRISITRDTSKNQFFLKLNSVTTEDTATYYCADFDYWGQGTTLTVSSASTKGPSVFPLAPSSKSTSGGTAALGCLVKDYFPEPVTVSWNSGALTSGVHTFPAVLQSSGLYSLSSVVTVPSSSLGTQTYICNVNHKPSNTKVDKKVEPKSCDKTHTCPPCPAPEAAGGPSVFLFPPKPKDTLMISRTPEVTCVVVDVSHEDPEVKFNWYVDGVEVHNAKTKPREEQYNSTYRVVSVLTVLHQDWLNGKEYKCKVSNKALGAPIEKTISKAKGQPREPQVCTLPPSRDELTKNQVSLSCAVKGFYPSDIAVEWESNGQPENNYKTTPPVLDSDGSFFLVSKLTVDKSRWQQGNVFSCSVMHEALHNHYTQKSLSLSPGK chain 3: QAVVTQESALTTSPGETVTLTCRSSTGAVTTSNYANWVQEKPDHLFTGLIGGTNKRAPGVPARFSGSLIGDKAALTITGAQTEDEAIYFCALWYSNLWVFGGGTKLTVLSSASTKGPSVFPLAPSSKSTSGGTAALGCLVKDYFPEPVTVSWNSGALTSGVHTFPAVLQSSGLYSLSSVVTVPSSSLGTQTYICNVNHKPSNTKVDKKVEPKSC chain 4: not shown |  |  | 3 | 7.1 |  |  |
